Laboratory results as given in the nanobody polyreactivity screen of Harvey et al. (2022).

Assay: yeast display, Sf9 membrane polyspecificity reagent, FACS + sequencing; frameworks hold sequencing errors
Outline: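 Galactose-induced (36–48 hours) yeast carrying a synthetic nanobody display library were exposed to 10% biotinylated, detergent-solubilized Sf9 membrane reagent at 4 °C for 1 hour. FACS followed streptavidin microbead enrichment, using low and high (top ~1%) gates for expression (anti-HA) and reagent binding (streptavidin). Colony PCR, MiSeq 2 × 250 sequencing and CDR-length filtering followed. Labels for polyreactivity reflect the gate of origin.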
For “QVQLVESVVVLVQAGGSLRLSCAASGFTIPFYAMGWYRQARGKERDLVAAISQSGVRTYYADSVKGRFTISRDNAKYTVYLQMKSLKPEDTAVYFCNVAYRGALDIHSYWYPSEYWGQGTQVTVSS”, the “polyreactivity (PSR sort gate)” value was “high polyreactivity”. With “QVQLVESGGGLVQAGGSLRLSCAASGFTFYLYTMGWYRQAPGKERELVATITSDGGTNYADSVKGRFTISRDNAKYTVYLQMNSLKPEDTAVYYCNAASRRGSRKQAKYDYWGQGTQVTVSS” the “polyreactivity (PSR sort gate)” value was “low polyreactivity”. In the case of “QVQLVESGGGLVQAGGSLRLSCAASGSIFVYYAMGWYRQAPGKERELVAAISSRGGRTYYADSVKGRFTISRDNAKNTVYLQMNSLKPEDTAVYYCAAVSSRLWLYDYWGQGTQVTVSS”, the “polyreactivity (PSR sort gate)” value is reported as “high polyreactivity”. In the case of “QVQLVESGGGLVQAGGSLRLSSAASGRTLRGYAMGWYRQAPGKERELVAAITWSGGSTYYADSVKGRFTISRDNAKNTVYLQMNSLKPEDTAVYYCNARSYPDLYDYWGQGTQVTVSS”, the “polyreactivity (PSR sort gate)” value is reported as “low polyreactivity”. With “EVQLEESGGGLVQAGGSLRLSCAASGSTFYQYALGWSRQAPGKERELVAAITTIGGRTYYADSVKGRFTISRDNAKNTVYLQMNSLNPEDTAVYYCAAGYRAWEPYGHYGYWGQGTQVTVSS” the “polyreactivity (PSR sort gate)” value was “high polyreactivity”. For “QVQLVESGGGLLQAGGSLRLICAASGSIFGANTMGWYRPAPGKERELVAGITSGARTYYADSVKGRFTMSRDNAKNTVYLQMNSLQPEDTAVYYCAANYAWRRYGYWGNGTQVTVSS”, the “polyreactivity (PSR sort gate)” value was “high polyreactivity”. In the case of “QVQLVESGGGLVQAGGSLRLSCAASGRTFVYYAMGWYRQAPGKEREFVATISDGGGTYYADSVKGRFTISRDNAKNTVYLQMNSMNPEDSAVYYCNARGTPWRYGGDYWGQGTQVTVSS”, the “polyreactivity (PSR sort gate)” value is reported as “low polyreactivity”. In the case of “QVQLVESGGGLVQAGGSLRLSCAASGRIFRSYTMGWYRQAPGKERELVAAISKTGSRTYYADSVKGRFTISRDNAKNTVYLQMNSLKPEDTAVYYCAALFVHSYRDDYWGQGTQVTVSS”, the “polyreactivity (PSR sort gate)” value is reported as “high polyreactivity”. In the case of “QVQLVDSGGGLVQAGGSLRLTCAASGSTIYKNTMGWDRQGPGKERELVAAITRGGSTYYADSVKGRVTISRDNAKNTVYLQMNSLKPEDTAVYYCNTLTRHRYGYDYWGQGTQVTVSS”, the “polyreactivity (PSR sort gate)” value is reported as “high polyreactivity”. For “QVQLVESGGRLVQAGGSLRLSCAASGRTFGYYAMGWYRQAPGQERELVAAITESGGSTYYSDSVKGRFTISRDNAMNTVYLQMNSLKPEDTAVYYFASTHFVKGDYWGQGTQVTVSS”, the “polyreactivity (PSR sort gate)” value was “high polyreactivity”. For “QVQLVESGGGLVQAGGILRLSCAASGGIFADYAMGWYRQAPGKERELVADISARGGSTYYADSVKGRFTISRDNAKNTVYLQMNSLKPEDTAVYYCAADALGYDYYYWGQGTQVTVSS”, the “polyreactivity (PSR sort gate)” value was “low polyreactivity”. With “QVQLVESGGGLVQAGGSLRLSCAASGIIFTQYAMGLYRQAPGKERELVAAISGSGGRTYYADSVKGRFTISRDIAKNTVYLQMNSLKPEDTAVYYCAARYARYGNDYWGQGTQVTVSS” the “polyreactivity (PSR sort gate)” value was “high polyreactivity”. For “QVQLVESGGGLVQAGGSLRLSCAASGFIFGKYAMGWYRQAPGKERELVAAISRSSRTFYADSVKGRFTISRDNAKNTVYLQMNSRKPEDTAVYYCAVKKRAPDGDYWGQGTQVTVSS”, the “polyreactivity (PSR sort gate)” value was “high polyreactivity”. With “QVQLVESGGGLVQAGGSLRLSCAASGIIFEYYAMGWSRPAPGKERQLVAAISSSGGSTYYADSVKVRFTISRDNAKNTVYLQMNSLKPEDTAVYYCATRYAASTSRWQYYYWGQGTQVTVSS” the “polyreactivity (PSR sort gate)” value was “high polyreactivity”. With “QVQLVESGGGLVEAGGSLRLSCAASGRIFRYNAMGWYRQAPGKEWELVAAITASGGRTYYADSVKGRFTISRDNAKNTVYLQMNSLKPDDTAVYYCAATAFDKLKVWYSYWRQGTQVTVSS” the “polyreactivity (PSR sort gate)” value was “high polyreactivity”. With “QVQLVESGGGLVQAGGSLRLSCAASGSTFTGNAMGWSRQAPGKERELVAAITDRGGSTYADSVKGRFTISRDNAKNTVYLQMNSLKPEDSAVYYCATRRDLHDRYEYDYWGQGTQVTVSS” the “polyreactivity (PSR sort gate)” value was “low polyreactivity”. With “QVQLVESGGGLVQAGGSLRLSCAASGRIFKTYAMGWYRPAPGTERELVAGISWRGGSTYYADSVKGRFTISRDNAKNTVYLQMNSLKPEDTAVYYCAADDTYTRYDYWGQGTQVTVSS” the “polyreactivity (PSR sort gate)” value was “high polyreactivity”. With “QVQLVESGGGLVQAGGSLRLSCAASGFIFDYSAMGWYRQAPGKERELVAAISHSGGTTYYADSVKGRFTISRDKAKNTVYLQMNSLKPEDTAVYYCNALYRKDFNSEYDYWGPGTQVTVSS” the “polyreactivity (PSR sort gate)” value was “high polyreactivity”. For “QVQLEESGGGLVQAGGSLRLSCAASGSIFKGYAMGWYRQAPGKESELVAAISGGGGSTYYADSVKGRFTISRDNAKNTVYLQMNSLKPEDTAVYYCNRDDSWSPSGAYDYWGQGTQVNVSS”, the “polyreactivity (PSR sort gate)” value was “low polyreactivity”. For “QVQLVESGGGVVQAGGSLRLSCPASGSIFETYVMGWYRPAPGIERELVAAINSGGSTNYADSVKGRFTISRDNAKNTVYLQMNRLKPEDTAVYYCNADWFTPAQPWYRSFIRYDYWGQGTQVTVSS”, the “polyreactivity (PSR sort gate)” value was “low polyreactivity”. With “QDHLVESGGGLVQAGGSLRLTCAASGSIFISYAMGWYRQAPGKERELVAAISIRGTRTYYADSVKGRFTISRDNAKNTVSLQMNSLKPEDTAVYFCAADASYTEGMDYWGQGTQVTVSS” the “polyreactivity (PSR sort gate)” value was “high polyreactivity”. With “QVQLVESGGGLVQAGGSLRLSCAASGSIFVYYAMGWYRQAPGKERELVAAISSTGGRTYYADSVKGRFTISRDNAKNTVYLQMNSLNPEDTAVYYCAKDYGSYFIFLSYPRSRYDYWGQGTQVTVSS” the “polyreactivity (PSR sort gate)” value was “low polyreactivity”. For “QVQLVESGGGLVQAGGSLRLSCAASGRIFNGNALGWYRQAPGNERELVAAISSGGRTYYADSVKGRFTISRDNAKNTVYLQMNSLKPEDTAVYYCNARGYSGRVIPEYYYWGQGTQVTVSS”, the “polyreactivity (PSR sort gate)” value was “high polyreactivity”. For “QVQLVESGGGLVQAGGSLRLSCAASGRTFTRYAMGWYRQAPGKERELVATITRGGSTNYADSVKGRFTISRDNSKNTVYLQMNSLKPEDTAVYYCAAGYFIRTRSRYRYDYWGQGTQVTVSS”, the “polyreactivity (PSR sort gate)” value was “high polyreactivity”. With “QVQLVESGGGLVQAGGSLRLSCAASGSTFSTNAMGWYSPAPGKERELVAASTVSGGRTYYADSVKGRFTISRDNAKNTVYLQMNSLKPEDTAVYYCATDTSRLSIFGYVSFYYWGQGTQVNVSS” the “polyreactivity (PSR sort gate)” value was “low polyreactivity”. With “QVQLVESGGGLVQAGGSLRLSCAASVIICPDNAMGWDRPAPGKERELVAAITQSRGSTFYADSVKGRFTISRDNAKNTVYLQMKSLKPEDTAVYYCNAYRKFRYWGQGTQVTVSS” the “polyreactivity (PSR sort gate)” value was “high polyreactivity”. In the case of “QVQLVESGGGLVQAGGSLRLSCAASGSTSTYYAMGWYRQAPGKERELVAAITLGAGRTYADSVKGRFTISRDNAKNTVYLQMNSLKPEDTAVYYCAADSHIDHGKWAYDYWGQGTQVTVSS”, the “polyreactivity (PSR sort gate)” value is reported as “low polyreactivity”. With “QVQLVESGGGLVQAGGSLRLSCAASGRIFGRNAMGWYRQAPGKERELVAAISKSGTSTYYADSVKGRFTISRDNAKNTVYLQMNSLKPEDTAVYYCAAALPGYGDYYYWGQGTQVTVSS” the “polyreactivity (PSR sort gate)” value was “high polyreactivity”. For “QVQLVESGGGLVQAGCSLRLSCAASGRTFLLYAMGWYRQAPGKERELVAAITWGGGSTYYADSVKGRFTISRDNAKNIVYLQMNCLKPEDTAVYYCNAYYWSRMDYWGQGTQVTVSS”, the “polyreactivity (PSR sort gate)” value was “low polyreactivity”. With “QVQLVESGGGLVQAGGSLRLSCAASGSIFSTYVMVWYRQAPGKDRELVAAITVSVGSTYYADSVKGRFTISRDNAKNTVYLQMNSLKPEDTAVYYCAAYGGTGYPFDAYYHDYDYWGQGTQVTVSS” the “polyreactivity (PSR sort gate)” value was “low polyreactivity”. For “QVQLVESGGGLVQAGGSLRLSCAASGSTIGVYAMGWYRQAPGKERELVAAITSGDSTNYADSVKGRFTISRDNAKNTVYLQMYSLKPEDTAVYYCNARQLYYWYYAYDYWGQGTQVTVST”, the “polyreactivity (PSR sort gate)” value was “low polyreactivity”. With “QVQLVESGGGLVQAGGSLRLSCAASGLIFRYYVMGWYRQAPGKERDFVASISYSGGRTYYADSVKGRFTISRDYAKNTVYLQMNRLKPEDTAVYYCAGGYYYHRYSYPGDYWGQGTQVTVSS” the “polyreactivity (PSR sort gate)” value was “high polyreactivity”. With “QVQLVESGGGLVQAGGSLRLSCAASGSTFHLYAMGWYRQAPGKERELVASITWSGGRTYYADSVKGRFTISRDYAKNTVYLHMNSLKPEDTAVYYCAAGDVNWSYSLLYTVVLYDSWGQGTQVTVSS” the “polyreactivity (PSR sort gate)” value was “high polyreactivity”. For “QVQHVESGVGLVQAGGSLRLSCAASGITFLDTVLGWYRHAPAKEWELVADINSIGTSTSYADSVKGRFTISRDNAKNTVYLQMISLKPEDTADYYCAATSYARLAYYYGGQGTQVTVSS”, the “polyreactivity (PSR sort gate)” value was “low polyreactivity”. For “QVQRVESGGGLVQAGGTLRLSCAASGFIFGYYAMGWSRQAPGKERELVAAISRSGGRTYYADSVKGRFTISRANAKNTVYLQLNSLKPEDTAVYYCAKSGYQYADDMDYLGQGTQVTVSS”, the “polyreactivity (PSR sort gate)” value was “high polyreactivity”. With “QVQLVESGGGLVQAGGSLRLSCAASGLIFWYYAMGWYRQAPGTERELVASISSGGDTTYADSVKGRFTISRDNAKKTVYLQMNSLKPEDTAVYDCAAERYVRVWVAGILHYDYWGQGTQVTGSS” the “polyreactivity (PSR sort gate)” value was “low polyreactivity”. For “QVQLVESGGGLVQAGGSLSLSCAASGNTLYNYPMGSYRPAPGKERELVAAISLSGGSTYYADSVKGRFTISRDNAKNTVYLQMNSLKRVDTAVYYCDADIFYYSSSYGYWGQGTQVTVSS”, the “polyreactivity (PSR sort gate)” value was “low polyreactivity”. With “QVQLVESGGGLVQAGGSLRLSCAASGNIFYLYAMGWYRQAPGKERELVARITIGGSTYYADSVKGRFTISRDNAKNTVYLQMNSLKPEDTAVYYCAARGPYYRYYYWGQGTQVTVSS” the “polyreactivity (PSR sort gate)” value was “high polyreactivity”. In the case of “QVQLVESGGGLVQAGGSLRLSCAASGSTFTAKAMGWYRQAPGKERELVASISARDGSTYADSVKGRFTISRDNAKNTVYLQMNSLKPEDTAVYYCNAAYFHIFPYDYDYWGQGTQVTVSS”, the “polyreactivity (PSR sort gate)” value is reported as “low polyreactivity”. For “QVQLVESGGGLVQAGGSLRLSCAASGFIITYYAMGWYRQATGKDRELVAVISWSGGTTYYAESVKGRFTISRDNATNTVYLQMNSLKPEDTAVYYCAAYRYFRPGDYWGQGTQVTVSS”, the “polyreactivity (PSR sort gate)” value was “low polyreactivity”. In the case of “QVQLVESGGGLVQAGGSLRLSCAASGRISGYAMGWDRQAPGKERELVAAISTRGGTTYYADSVKGRFTISRDNAKNTVQLQMNSLKPEDTAVYYCNAASSRWPEYDYWGQGTQVTVSS”, the “polyreactivity (PSR sort gate)” value is reported as “high polyreactivity”.
